Article PMC314469, “Protein Interaction Networks by Proteome Peptide Scanning” (PLoS Biology, 2004)

Molecular target: T1, Abp1 SH3 (ABP1_YEAST), P15891
T1 chain: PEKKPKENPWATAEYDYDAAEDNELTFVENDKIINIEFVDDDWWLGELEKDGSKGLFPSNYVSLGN
Test: SPOT array

B1: YPL015C 81-93 (peptide)
chain: TLAKELYPGNFRP
Work on B1 yielded a normalised SPOT signal, Boehringer light units (BLU); mean over the file's lines of this peptide of 54.

B2: YCL048W 21-34 (peptide)
chain: THALGAAIDPPRRP
B2 was tested, and the normalised SPOT signal, Boehringer light units (BLU); mean over the file's lines of this peptide was 53.7.

B3: YIL095W 739-752 (peptide)
chain: TKSNGKDKSRPPRP
B3 gave a normalised SPOT signal, Boehringer light units (BLU); mean over the file's lines of this peptide of 141.

B4: YIR002C 128-141 (peptide)
chain: TKKAKIIFTAPTRP
With B4 the normalised SPOT signal, Boehringer light units (BLU); mean over the file's lines of this peptide was 87.4.

B5: YBL009W 142-155 (peptide)
chain: TKVTNSKFRTPLRP
B5 gave a normalised SPOT signal, Boehringer light units (BLU); mean over the file's lines of this peptide of 137.

B6: YHR102W 753-765 (peptide)
chain: THTNLAPPPTMKP
Work on B6 yielded a normalised SPOT signal, Boehringer light units (BLU); mean over the file's lines of this peptide of 136.

B7: YML061C 94-106 (peptide)
chain: TDIHKEDPVDKKP
In the case of B7, the normalised SPOT signal, Boehringer light units (BLU); mean over the file's lines of this peptide is reported as 200.

B8: YPL226W 815-827 (peptide)
chain: TDVTFSYPGAQKP
B8 gave a normalised SPOT signal, Boehringer light units (BLU); mean over the file's lines of this peptide of 108.

B9: YLR249W 670-682 (peptide)
chain: TNMEFQYPGTSKP
B9 showed a normalised SPOT signal, Boehringer light units (BLU); mean over the file's lines of this peptide of 93.7.

B10: YJL045W 457-470 (peptide)
chain: TIADTLQPGLPHKP
B10 gave a normalised SPOT signal, Boehringer light units (BLU); mean over the file's lines of this peptide of 127.

B11: YMR044W 280-292 (peptide)
chain: TKAKKEKPKPPKP
With B11 the normalised SPOT signal, Boehringer light units (BLU); mean over the file's lines of this peptide was 1330.

B12: YGL122C 280-292 (peptide)
chain: TKVSNEYPNSPKP
In the case of B12, the normalised SPOT signal, Boehringer light units (BLU); mean over the file's lines of this peptide is reported as 146.

B13: YKL085W 88-101 (peptide)
chain: TDMVLIPAGVPRKP
B13 was tested, and the normalised SPOT signal, Boehringer light units (BLU); mean over the file's lines of this peptide was 122.

B14: YKL178C 248-261 (peptide)
chain: TIWNTIIKFDPGRP
Work on B14 yielded a normalised SPOT signal, Boehringer light units (BLU); mean over the file's lines of this peptide of 180.

B15: YHR100C 9-21 (peptide)
chain: TLRLLYNPSLSKP
Work on B15 yielded a normalised SPOT signal, Boehringer light units (BLU); mean over the file's lines of this peptide of 61.

B16: YHR102W 715-728 (peptide)
chain: TKLSTHKASSPSRP
B16 showed a normalised SPOT signal, Boehringer light units (BLU); mean over the file's lines of this peptide of 170.

B17: YBL047C 1258-1270 (peptide)
chain: TLTSSSNPTIPKP
For B17, the normalised SPOT signal, Boehringer light units (BLU); mean over the file's lines of this peptide was 129.

B18: YGL167C 571-584 (peptide)
chain: TFTGLIGMNDPPRP
With B18 the normalised SPOT signal, Boehringer light units (BLU); mean over the file's lines of this peptide was 83.7.

B19: YJR024C 74-86 (peptide)
chain: TLEYLRSPKLYKP
For B19, the normalised SPOT signal, Boehringer light units (BLU); mean over the file's lines of this peptide was 193.

B20: YMR185W 853-865 (peptide)
chain: TSLSIVRPNDSKP
Work on B20 yielded a normalised SPOT signal, Boehringer light units (BLU); mean over the file's lines of this peptide of 54.1.

B21: YBR058C 192-205 (peptide)
chain: TSPHTENFQIPSKP
B21 gave a normalised SPOT signal, Boehringer light units (BLU); mean over the file's lines of this peptide of 66.6.

B22: YDL227C 82-95 (peptide)
chain: TAGHKLSVRVPTKP
B22 showed a normalised SPOT signal, Boehringer light units (BLU); mean over the file's lines of this peptide of 638.

B23: YKR086W 737-749 (peptide)
chain: TDELSKFPFIDKP
In the case of B23, the normalised SPOT signal, Boehringer light units (BLU); mean over the file's lines of this peptide is reported as 42.7.

B24: YBR115C 740-752 (peptide)
chain: TLITFMVPRFDKP
B24 gave a normalised SPOT signal, Boehringer light units (BLU); mean over the file's lines of this peptide of 0.

B25: YNL251C 479-491 (peptide)
chain: TDSGRNGPRSGKP
B25 was tested, and the normalised SPOT signal, Boehringer light units (BLU); mean over the file's lines of this peptide was 36.5.

B26: YPR096C 5-17 (peptide)
chain: TGVSIKNPRPSRP
B26 gave a normalised SPOT signal, Boehringer light units (BLU); mean over the file's lines of this peptide of 1030.

B27: YKR098C 130-143 (peptide)
chain: TIKRKRAYSLPLRP
In the case of B27, the normalised SPOT signal, Boehringer light units (BLU); mean over the file's lines of this peptide is reported as 133.

B28: YMR124W 350-362 (peptide)
chain: TNGPRYSPQNPRP
In the case of B28, the normalised SPOT signal, Boehringer light units (BLU); mean over the file's lines of this peptide is reported as 749.

B29: YDR176W 125-138 (peptide)
chain: TNIIDKGVQSPPKP
B29 was tested, and the normalised SPOT signal, Boehringer light units (BLU); mean over the file's lines of this peptide was 140.

B30: YBR208C 1266-1278 (peptide)
chain: TSGPHGSPDFFKP
Binder B30 has a normalised SPOT signal, Boehringer light units (BLU); mean over the file's lines of this peptide of 64.2.

B31: YOL153C 56-68 (peptide)
chain: TFDVPASPQSKKP
Work on B31 yielded a normalised SPOT signal, Boehringer light units (BLU); mean over the file's lines of this peptide of 113.

B32: YML016C 58-71 (peptide)
chain: TNSNVPDPSTPSKP
For B32, the normalised SPOT signal, Boehringer light units (BLU); mean over the file's lines of this peptide was 78.1.

B33: YJR061W 698-711 (peptide)
chain: TMFSGVSAFVPNRP
B33 was tested, and the normalised SPOT signal, Boehringer light units (BLU); mean over the file's lines of this peptide was 451.

B34: YCL027W 383-396 (peptide)
chain: TEKHELIIPTPSKP
B34 gave a normalised SPOT signal, Boehringer light units (BLU); mean over the file's lines of this peptide of 57.

B35: YOL148C 219-231 (peptide)
chain: TNTVDVTPKENKP
In the case of B35, the normalised SPOT signal, Boehringer light units (BLU); mean over the file's lines of this peptide is reported as 40.3.

B36: YPL088W 324-337 (peptide)
chain: TEEEIKYLEEPYKP
B36 was tested, and the normalised SPOT signal, Boehringer light units (BLU); mean over the file's lines of this peptide was 102.

B37: YMR011W 36-49 (peptide)
chain: TKSEYTNAELPAKP
B37 was tested, and the normalised SPOT signal, Boehringer light units (BLU); mean over the file's lines of this peptide was 67.7.

B38: YOR118W 248-260 (peptide)
chain: TAIRTVMPNLLKP
In the case of B38, the normalised SPOT signal, Boehringer light units (BLU); mean over the file's lines of this peptide is reported as 109.

B39: YGR127W 236-248 (peptide)
chain: TMNTIYVPPLRRP
Work on B39 yielded a normalised SPOT signal, Boehringer light units (BLU); mean over the file's lines of this peptide of 3360.

B40: YIL110W 72-84 (peptide)
chain: TFEEFQSPIYRKP
B40 gave a normalised SPOT signal, Boehringer light units (BLU); mean over the file's lines of this peptide of 98.3.

B41: YPR171W 199-212 (peptide)
chain: TDGNEEKPLLPTRP
Binder B41 has a normalised SPOT signal, Boehringer light units (BLU); mean over the file's lines of this peptide of 65.4.

B42: YML109W 280-292 (peptide)
chain: TKFDDEPPLADKP
With B42 the normalised SPOT signal, Boehringer light units (BLU); mean over the file's lines of this peptide was 133.
